B1: EPB41L3 (parent)
chain: SDYISEFRFAPNHTKELEDKVIEL

Variants of: B1
Test: protein stability index of a GFP-peptide fusion (GPS, HEK-293T) (PSI 1-6); higher = more stable
Settings: c terminus: a fixed tail appended
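Note: lentivirally expressed fusions sorted by FACS into six bins by GFP to DsRed ratio, PSI derived from sequencing read proportions per bin multiplied by bin number.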

Variant	protein stability index
SDYISEFRFAPNHTKESEDKVIEL [L17S]	1.84
SDYISEFRFAPNHTKELEDKVLEL [I22L]	2.28
SDYISEFRFAPNHTKELEDKVAEL [I22A]	3.26
SDYISEFRFAPNHTKELEDKVPEL [I22P]	2.58
SDYISEFRFAPNHTKELEDKVDEL [I22D]	2.88
SDYISEFRFAPNHTKELEDKVGEL [I22G]	2.79
SDYISEFRFAPNHTKELEDKVEEL [I22E]	2.94
SDYISEFRFAPNHTKELEDKVNEL [I22N]	2.74
SDYISEFRFAPNHTKELEDKVHEL [I22H]	2.55
SDYISEFRFAPNHTKELEDKVMEL [I22M]	2.31
SDYISEFRFAPNHTKELEDKVKEL [I22K]	2.51
SDYISEFRFAPNHTKELEDKVFEL [I22F]	1.74
SDYISEFRFAPNHTKELEDKVCEL [I22C]	2.19
SDYISEFRFAPNHTKELEDFVIEL [K20F]	2.31
SDYISEFRFAPNHTKELEDGVIEL [K20G]	1.93
SDYISEFRFAPNHTKELEDTVIEL [K20T]	1.68
SDYISEFRFAPNHTKELEDCVIEL [K20C]	2.13
SDYISEFRFAPNHTKELEDMVIEL [K20M]	1.8
SDYISEFRFAPNHTKELEDYVIEL [K20Y]	1.87
SDYISEFRFAPNHTKELEDVVIEL [K20V]	2.02
SDYISEFRFAPNHTKELEDPVIEL [K20P]	2.2
SDYISEFRFAPNHTKELEDEVIEL [K20E]	2.48
SDYISEFRFAPNHTKELEDLVIEL [K20L]	2.28
SDYISEFRFAPNHTKELEDSVIEL [K20S]	2.3

Variant	protein stability index
SDYISEFRFAPNHTKELEDNVIEL [K20N]	1.87
SDYISEFRFAPNHTKELEDHVIEL [K20H]	1.79
SDYISEFRFAPNHTKELEDRVIEL [K20R]	1.83
SDYISEFRFAPNHTKELEDDVIEL [K20D]	2.71
SDYISEFRFAPNHTKELEDIVIEL [K20I]	3.7
SDYISEFRFAPNHTKELEDQVIEL [K20Q]	1.89
SDYISEFRFAPNHTKELEDAVIEL [K20A]	2.4
SDYISEFRFAPNHTKELEDWVIEL [K20W]	1.4
SDYISEFRFAPWHTKELEDKVIEL [N12W]	1.5
SDYISEFRFAPSHTKELEDKVIEL [N12S]	2.21
SDYISEFRFAPYHTKELEDKVIEL [N12Y]	2.1
SDYISEFRFAPVHTKELEDKVIEL [N12V]	2.23
SDYISEFRFAPTHTKELEDKVIEL [N12T]	2.2
SDYISEFRFAPNHTKELEMKVIEL [D19M]	2.03
SDYISEFRFAPNHTKELEKKVIEL [D19K]	1.89
SDYISEFRFAPNHTKELERKVIEL [D19R]	1.39
SDYISEFRFAPNHTKELEYKVIEL [D19Y]	1.36
SDYISEFRFAPNHTKELEVKVIEL [D19V]	2.09
SDYISEFRFAPNHTKELEQKVIEL [D19Q]	1.71
SDYISEFRFAPNHTKELEGKVIEL [D19G]	2.06
SDYISEFRFAPNHTKELEEKVIEL [D19E]	1.77
SDYISEFRFAPNHTKELEHKVIEL [D19H]	1.86
SDYISEFRFAPNHTKELESKVIEL [D19S]	2.81
SDYISEFRFAPNHTKELEWKVIEL [D19W]	3.08

Variant	protein stability index
SDYISEFRFAPNHTKELENKVIEL [D19N]	1.79
SDYISEFRFAPNHTKELECKVIEL [D19C]	2.02
SDYISEFRFAPNHTKELELKVIEL [D19L]	2.69
SDYISEFRFAPNHTKELEFKVIEL [D19F]	3.65
SDYISEFRFAPNHTKELETKVIEL [D19T]	1.8
SDYISEFRFAPNHTKELEAKVIEL [D19A]	1.49
SDYISEFRFAPNHTKELEIKVIEL [D19I]	2.71
SDYISEFRFAPNHTKELEPKVIEL [D19P]	2.19
SDYISEFRFAPNHTKELEDKYIEL [V21Y]	2.14
SDYISEFRFAPNHTKELEDKTIEL [V21T]	2.18
SDYISEFRFAPNHTKELEDKDIEL [V21D]	2.96
SDYISEFRFAPNHTKELEDKIIEL [V21I]	2.22
SDYISEFRFAPNHTKELEDKPIEL [V21P]	1.94
SDYISEFRFAPNHTKELEDKQIEL [V21Q]	1.99
SDYISEFRFAPNHTKELEDKKIEL [V21K]	2.15
SDYISEFRFAPNHTKELEDKCIEL [V21C]	1.88
SDYISEFRFAPNHTKELEDKHIEL [V21H]	1.85
SDYISEFRFAPNHTKELEDKRIEL [V21R]	1.78
SDYISEFRFAPNHTKELEDKLIEL [V21L]	2.48
SDYISEFRFAPNHTKELEDKAIEL [V21A]	2.31
SDYISEFRFAPNHTKELEDKNIEL [V21N]	2.38
SDYISEFRFAPNHTKELEDKGIEL [V21G]	2.37
SDYISEFRFAPNHTKELEDKFIEL [V21F]	3.22
SDYISEFRFAPNHTKELEDKSIEL [V21S]	2.05

Variant	protein stability index
SDYISEFRFAPNHTKELEDKWIEL [V21W]	2.14
SDYISEFRFAPNHTKELEDKMIEL [V21M]	3.45
SDYISEFRFAPNHTKELEDKEIEL [V21E]	2.54
SDYISEFRFAPNHQKELEDKVIEL [T14Q]	2.55
SDYISEFRFAPNHNKELEDKVIEL [T14N]	2.25
SDYISEFRFAPNHEKELEDKVIEL [T14E]	2.74
SDYISEFRFAPNHMKELEDKVIEL [T14M]	2.65
SDYISEFRFAPNHVKELEDKVIEL [T14V]	2.42
SDYISEFRFAPNHKKELEDKVIEL [T14K]	1.4
SDYISEFRFAPNHHKELEDKVIEL [T14H]	1.68
SDYISEFRFAPNHYKELEDKVIEL [T14Y]	2.06
SDYISEFRFAPNHDKELEDKVIEL [T14D]	2.49
SDYISEFRFAPNHLKELEDKVIEL [T14L]	2.23
SDYISEFRFAPNHAKELEDKVIEL [T14A]	2.16
SDYISEFRFAPNHSKELEDKVIEL [T14S]	1.76
SDYISEFRFAPNHGKELEDKVIEL [T14G]	1.88
SDYISEFRFAPNHFKELEDKVIEL [T14F]	1.97
SDYISEFRFAPNHWKELEDKVIEL [T14W]	2.18
SDYISEFRFAPNHPKELEDKVIEL [T14P]	1.37
SDYISEFRFAPNHRKELEDKVIEL [T14R]	2.08
SDYISEFRFAPNHCKELEDKVIEL [T14C]	2.02
SDYISEFRFAPNHIKELEDKVIEL [T14I]	2.7
